Reference: paper PMC4519330, “An Internally Translated MAVS Variant Exposes Its Amino-terminal TRAF-Binding Motifs to Deregulate Interferon Induction” (PLoS Pathogens, 2015)

Target: the molecule itself
Test: co-IP; 293T cells co-transfected; lysates in NP40 buffer (50 mM Tris-HCl pH 7.4, 150 mM NaCl, 5 mM EDTA, 1% NP40) precipitated with anti-Flag agarose at 4°C for 4-6 hours; immunoblot

B1: Flag-tagged MAVS50 (natural protein, human, UniProt Q7Z434 142-540, looked up)
chain: MPVQETQAPESPGENSEQALQTLSPRAIPRNPDGGPLESSSDLAALSPLTSSGHQEQDTELGSTHTAGATSSLTPSRGPVSPSVSFQPLARSTPRASRLPGPTGSVVSTGTSFSSSSPGLASAGAAEGKQGAESDQAEPIICSSGAEAPANSLPSKVPTTLMPVNTVALKVPANPASVSTVPSKLPTSSKPPGAVPSNALTNPAPSKLPINSTRAGMVPSKVPTSMVLTKVSASTVPTDGSSRNEETPAAPTPAGATGGSSAWLDSSSENRGLGSELSKPGVLASQVDSPFSGCFEDLAISASTSLGMGPCHGPEENEYKSEGTFGIHVAENPSIQLLEGNPGPPADPDGGPRPQADRKFQEREVPCHRPSPGALWLQVAVTGVLVVTLLVVLYRRRLH
notes: MAVS (mitochondrion antiviral signaling adaptor), variant of ~50 kDa from internal translation initiation at codon 142; also called MAVS50-Flag; Flag-MAVS50
B1: binds.
